Assay: soluble on expression in E. coli; label from the status in PepcDB or PDB records

Sequence | soluble on expression in E. coli
MSLIILTRDDEPRIFTPDSDAASPALHSTSPLPDPASASPLHREEKILPKVCNIVSCLSFSLPASPTDSGLASPTIITREGQQFWAKCLIWKYQLYLHGLHKKSDGRRDKQISASPST | soluble
MTTMTIKNAMVLAAGLGTRMRPITDTIPKPLVKIAGKPMIDYALDALVEAGAETIVVNVHHHAEQMISHLGHRTDAEILISDERTQLMNSGGGLAKGLKLLKPGPVFVMNADLFWIGERLNAVSNLRKLAQFLDPARMDMALLCVDMDRTTGHNGKRDFNLAGEGKLTRYRDGDANPVVYAGAIAMDSRLLDDAPADAFNLNIYFDRAIEKDRLFGLSLDGHWITVGTPDAIDDAESIIRQFREKRFALEHHHHHH | not soluble
SLKPIMYNEKRGVSVMDIKLQQTQILKPQLTQELKQAITLLGYNSAELAGYIDELSLENPLIERKETDTPPLSYHKTNKNRMKEQDVSQQIRLTRKTLQDSLKQQAIDMKLSDAEKKIFNYLIYSLDSNGYLKEDIQAAADHVSASLEETEAVLAKLQSLEPAGIGARSLQECILLQLRRLPERNEQAEWIAGAYFELFARKNWKALTLQTGIPLKDIQDIFDMISALDPRPGLRYAHEEPGFYVEPDIFNTVKNGIIQARLNSRSFPDIQLHAHYRPMLSAAGCRDVQQVPF | soluble
MRGSHHHHHHGSASFLKKTMPFKTTIEGTVNGHYFKCTGKGEGNPFEGTQEMKIEVIEGGPLPFAFHILSTSCMYGSKTFIKYVSGIPDYFKQSFPEGFTWERTTTYEDGGFLTAHQDTSLDGDCLVYKVKILGNNFPADGPVMQNKAGRWEPGTEIVYEVDGVLRGQSLMALKCPGGRHLTCHLHTTYRSKKPASALKMPGFHFEDHRIEIMEEVEKGKCYKQYEAAVGRYCDAAPSKLGHN | soluble
MNIQEKFKAIRKQRKLSLRDLANVAGSTSSISDFEKGKTNLSNDVLLQLLGFMVVEINEIFEWSAFQDAEFLELMTQVENALQTQDITVLIQKRETLQEFFVAKNHYIYHIISLVLDVIISKLQEKEPTPEIISELTDYFFSLDYWTNLDVGLLGNIVHHFTTETLVLFTDSILKNTPNQLRNNLDRIKIDTVINCLSVLLARREKNASQELLQLLSRKQFPTYFTYEKLCISEFKAIYMYIWCDKEEADNIHQTILKTVSLLFTKDEANKWDDYFKEIISSADIKK | not soluble
MGHHHHHHSHMKESAHLAISWLRSNAKKYQLTNAFGSFDLLDNTDIHLHFPAGAVTKDGPSAGVTIVTCLASLFSGRLVRSDVAMTGEITLRGLVLPVGGIKDKVLAAHRAGLKQVIIPRRNEKDLEGIPGNVRQDLSFVTASCLDEVLNAAFDGGFTVKTRPGLLNSKL | not soluble
MGSDKIHHHHHHMLNSDLDIRLEPRIKELYRLHKERSANIDWSYHEFIPWDKAMSFKRVPWEESQVTLPEGVIVAVETALLTEVNLPWYTSHLDYTFKNSMEVINDFVRTWTAEEDQHSSLLETYLLVTRNVNPTRLHQLRRRVVESGWFPDFTNPLATMAYTSLQELATLVFYNNVARVAGAHDKDLATLLRRLAKDEALHYAFYRDTVKAHLELDPNFIVFFEDVIINFSMPGAIMPDFTERMKTIAIDTNYGPLQYFDQVLDVVVKYWDIENLQPTSEEAKQSQANIMKYHGRLKRIKDRQSAKNKIDA | not soluble
AIAVLLRHPVLGTEQLPDSWPSHWNTAIVGIPGYSRQRSDLSVVKDVSSPCLPLVAMPSCDDGLASLWNDVSRAV | soluble
MSLGIYMRDDILDIITLTTDFGTNEGYVGAMKGRILNILKKYNKDAKIIDISHEIKPFNIYHGAYVLLTAIPYFPPSVHVAVIDPTVGSERKSIVIETKSGYYLVGPDNGLFTYVAEKLGIKRIIKIDEERYKPSSTFHGRDVYAVVGAEILINNGYDGEELDEMVKIDETKKRVIHIDRFGNIITNIKKDEVTFKYYDTIMIKIRHKNGIEKIIKCKFVKSYFEEKNNFICLINSEGFLEISKFMDNASKLLNVDYLDEIEIEGGSHHHHHH | soluble
MKLEGVWKVFGNVVAVRDVNLYIEDKEFVSILGPSGSGKTTLLYLIAGIYKPSRGRIYFNDVDVTDLPPNKRNIGLVFQNYALYPHMTVYENIAFPLRLRNFGEPAIKEKVLSVAKLLGIEGLLDRYPAQLSGGQQQRVALARALVKEPEVLLLDEPLSNLDALLRIKIRSELKKLQKELGITAIYVTHDQSEALAMADRIAIIASGVIQQVGKPWDVYYKPRNVFVASFIGTPPANLVSVPLDSSRRCLLLPGGGRYCPPRRIAEKLAAVKTNSVILGFRPEVAVLSESPLGDYVSMEAEVYTVETLGRENIVTLLVNGSQVKVIVPPVVEPRPGSRIFINIEEDKVMYFDPETEINVEYLEVPGMEEAIAESAGTLRKQEMEEEWD | soluble
MSLHVGAGKSFGTAEANENERRWNDDKIDRKNQDPTNHYDRTRMKLNFEIGPDGKIHPLGYQEKSLEVRLQERLDELGWKPFKADSKIQPNCCAKFVFGGNHDRTLEMAFGNQSVNLEKGADNSHLHRCEEIENWAKDVYDWCVQIYGQENIVGFQVHLDESSPHIHALVVPVGIRPKSGRKCVMWSAKFGKDRYEYGQILKEMHTFLYEDVGSKYGLERGDSIEGRNVHHLHKRDYIRKLTKEAKQAEKAVKGLQSMMRNLESKIFSYRLQLEETEKELASGKITLDRYEAQKADIQKLIAEYQTKLEDKTDKLHAKEQELERLTADATKARSVVQPFRNHKVDFMPPQITEKVPLFGTDKWVERQNQRIAKQFTEIVRKIESLYRNDAARQVEAAQRNVLADYGELYQLRRENKSLSDTNESLESELNTLLDQLAIPSARNLIFAVADALIGGQPVPVSSGGGGSTSDLPWDGRRSDEEEEAYRRRCLMFAIVTVCKQQTKSRREGHHHHHH | soluble
MGWCVMAVLVDSETRVLVQGITGREGSFHAKAMLEYGTKVVAGVTPGKGGSEVHGVPVYDSVKEALAEHPEINTSIVFVPAPFAPDAVYEAVDAGIRLVVVITEGIPVHDTMRFVNYARQKGATIIGPNCPGAITPGQAKVGIMPGHIFKEGGVAVVSRSGTLTYEISYMLTRQGIGQSTVIGIGGDPIVGLSFTEALKLFQEDPQTEALVLIGEIGGDMEERAAEMIKKGEFTKPVIAYIAGRTAPPEKRMGHAGAIIMMGTGTYEGKVKALREAGVEVAETPFEVPELVRKALRR | soluble
MSEVNKKVQDGVDDYLEEEDFGQLLEAFDKSREEATTEGVIVEIKNDEVYVDIGKKSEGILALSEIQGDNSKLLFNVGDSIKVAVMGSRGGRSLLSHKKALRKEKVIEFIKNYQENQDDIFTVKVVGKNKGGLIVVDENDVEFFLPKSQYGFKETNNIIGKTFKVKIIKIDKDEQSIIVSRKKTLDDERRKRKELINNVAQQEDLIEGIVKKITTYGMFVDVGGVDGLVHYSEISYKGPVNPGTLYKEGDKVPVKVIKYDKERKHLSLSIKAALPDPWSEIKDTLDIGDTIKVIVSNIEPYGAFVDLGNDIEGFLHISEISWDKNIKNPKDYINKGQEIDVEVIEINPNERRLRVSLRNLLSRPFDEFMKSYKIADVVEGEITSVTSFGAFVKLGGIEGLLHNEDASWDRNDKCKDKFSQGDKIKVKIIKIDEENQKISLSTKELSSSPVQEYAKIHKVGDIVKGAIRDIKDFGVFVELSKNVDALIHKEDISTSMLENLKIGDDIEAAIVFIDEKKNRIRLSVKNLVRIKEREVLNEINNDDKVTLGDIIKDQLALEHHHHHH | soluble
MSLEVVLWDFDGVIFDSMHLKNEGFRALFQKHGNKNQESLKQFEVYHYQSGGISRNEKIQYFYNEILKTPIAQEEVDALALEFGTIIEQKLFDREHLNSEVMAFIDKHYKNHVFHIASAALHSELQVLCEFLGIIKYFKSVEGSPPNKPKIIANIIQKYAYNPGRMLMIGDSVNDYESAQANEVAFLGYNSKVLKNLVGQNGYQGKYLESFKGFDLQNFIKEGHHHHHH | soluble
MSNAMPWVRFYLYDWISGTNGMTSEQRGVYITLLVCMYEKKEPLKTDFETLARVCHCSQKKFAAIVEYLMRNDKLIEIDGRLWNLDVEEELNNLSEELDNFTFNNNEEKEVKYVN | not soluble
MSLTNHQVSYFSLQDVKLLSSPFLQAQQTDLHYILALDPDRLSAPFLREAGLTPKAPSYTNWENTGLDGHIGGHYLSALSMMYAATGDTAIYHRLNYMLNELHRAQQAVGTGFIGGTPGSLQLWKEIKAGDIRAGGFSLNGKWVPLYNIHKTYAGLRDAYLYAHSDLARQMLIDLTDWMIDITSGLSDNQMQDMLRSEHGGLNETFADVAEITGDKKYLKLARRFSHKVILDPLIKNEDRLNGMHANTQIPKVIGYKRVAEVSKNDKDWNHAAEWDHAARFFWNTVVNHRSVCIGGNSVREHFHPSDNFTSMLNDVQGPETCNTYNMLRLTKMLYQNSGDVDNSNKPDPRYVDYYERALYNHILSSQEPDKGGFVYFTPMRPGHYRVYSQPETSMWCCVGSGLENHTKYGEFIYAHQQDTLYVNLFIPSQLNWKEQGVTLTQETLFPDDEKVTLRIDKAAKKNLTLMIRIPEWAGNSKGYEITINGKKHLSDIQTGASTYLPIRRKWKKGDMITFHLPMKVSLEQIPDKKDYYAFLYGPIVLATSTGTENLDGEGHHHHHH | soluble
MGSDKIHHHHHHMKPNIITVILAAGASSRFHGAKMLAKVKGNQSLLARSIVSLNKVTATAGIKAPAVVLGAHLNDEIMAITATSHQIINPDWQQGLSSSVKHASQYAIEQQADALLLVLADQVAIDVDDYLHLIERYQQNGLTSCAFYRQDVGVPAIFLAKDFAVLMSIDGDKGAKSILKQHDKNNSLNIISMEQAQFDIDTPADLARWLDNKD | not soluble
DIQMTQTTSSLSASLGDRVTISCSASQDISSYLNWYQQKPEGTVKLLIYYTSSLHSGVPSAFSGSGSGTDYSLTISNLEPEDFATYYCQQYSKFPWTFGGGTKLEIKRADAAPTVSIFPPSSEQLTSGGASVVCFLNNFYPKDINVAWAIDGSAAANGVLNSWTDQDSKDSTYSMSSTLTLTADAYEAANSYTCAATHKTSTSPIVKSFNANEC | soluble
MTKRGLGKGLDALLATSSLAREKQQVASLSQSMSAEGELADLSISNLKPGIYQPRKDLSPEALEELAASIQSQGIIQPIVVRHLPTGGYEIIAGERRWRAAKQAGLKQVPCLIKQVEDRGAIAMALIENIQREDLNAMEEAQALERLQNEFNLTHQQVAEVIGKSRTTVTNLLRLNQLSDDVKRLLETKQLEMGHARALLMLEGEQQVEIAQQVAKKQLTVRQTEQLVKKCLSDPSDAKNVSEDLEIQQLSQNLSEKLAAKVSIVRTPNGKSKVTISLDEPHKLELLIAKLQN | not soluble
GVWRQYASRALQELGAGKRAIHDVADLTRGSLRIAVTPTFTSYFIGPLMADFYARYPSITLQLQEMSQEKIEDMLCRDELDVGIAFAPVHSPELEAIPLLTESLALVVAQHHPLAVHEQVALSRLHDEKLVLLSAEFATREQIDHYCEKAGLHPQVVIEANSISAVLELIRRTSLSTLLPAAIATQHDGLKAISLAPPLLERTAVLLRRKNSWQTAAAKAFLHMALDKCAVVGGNESR | soluble
MSLGTLWWNGTFFTMVHEGDQVEAVFTEDGKIVAIGTAEELRQRYSTRINQEMNCDGAYVYPGFVDSHLHMIGHGEKLLRLDLSTVMNAEDMREKLMERVALTEEGDWVTAEGWNENNFPDQKIFHRNELDEIAPNHPMILTRVCRHAILVNSKALQLAGISKDTTDPPGGRIVRDELGEPTGYLLDTAQELVKRVAPSVSAAYLERALAAAVDDMVAKGLVGGHTEDLGYYLGFNQTFATFQRVIDGNTRRFRAHLLVHHEVIDDMIKAGYCKGPVGEWLEFGAMKIFADGAFGGRTALLSEPYCDAPTTSGVAIHTQEQLTNLIKKARQYKLPVAIHTIGDEALRMAITSIEAHPVTEGRDRLIHTQVTPPSLVERMKKLKVILDIQPAFVPADFPWVEERLGNERLSYSFAWKTLLRSGMALAGGSDAPIEEVDPLYGIYAAVARKKPTDQHEGYLPEEKLTRYEALQLYTTGSAYAIEREHERGNIRPGYVADFTMLNRNLFTCREEELLTTRVEKTVIGEAIVFQAKGIITITTDPNSSSVDKLAAALEHHHHHH | soluble

— the DeepSol protein solubility set
